Substrate: COC1=C(OC)C(=O)C(CC=C(C)C)=C(C)C1=O
Assay: PRODH steady-state kinetics
Assay type: biochemical, Rhodobacter capsulatus
Settings: 200 mM proline fixed, 23 °C, 20 mM Tris pH 8.0, 10% glycerol

B1: RcPutA (Rhodobacter capsulatus SB 1003) (protein)
chain: MTDLSALGPKAKFAPEAEVLQALVAQAALPQPQLDRIAARGADLVARIRAEAKPSLMEHFLAQYGLSTREGVALMCLAEAMLRVPDTATIDALIEDKIAPSDWGKHLGTAASSLVNASTWALMLTGKVLDDGAGGIAGTLRGAMRRLGEPVIRAAVGQAMREMGRQFVLGETIEKALERAEKREAEGYTFSYDMLGEAALTAADAERYRLAYAQAITAIGKAATRGSIAANPGISIKLSALHPRYEVAQEARVMAELVPVVRDLARAAARAGIALHIDAEEQDRLALSLRVMAAVIADPETAGWEGFGAVVQAYGKRAGAAIDALAAMARAAGRRINIRLVKGAYWDAEMKRAQVEGHPGFPLFTSKTGTDVAYICLAAKLFGLNDCIYPQFATHNAHTVAAVLEMAAGRPFEFQRLHGMGARLHDIVLRETGGRCRIYAPVGAHRDLLAYLVRRLLENGANSSFVNQIVNESVPPAEVAACPFAALPTARAPRGLLAPADLFGAGRVNAQGFDLSDPEVLARIEAARDVTLPDAAPIVAGPVSGTLRPVRNPATGAVVAQVTEADAATVALALDAAQVWSAPAATRAAVLCRAADLYEENFGPIFAALAQEAGKTLGDAVSELREAVDFLRYYAAEGAADTRPPRGAVVAISPWNFPLAIFTGQVAAALMAGNAVLAKPAEQTPIIAALAVRLLHQAGVPETALQLLPGDGPTVGAALTRDPRVAGVVFTGSTETAQIIARAMAAHLAPGTPLIAETGGLNAMVVDSTALPEQAVRDVVASAFRSAGQRCSALRCLYVQDDIAPHLIGMLKGAMEELVSGDPARLSTDVGPVIDAEAKAGIETYLAANKARILHRSTAPEGGHFVAPALLQVGGIADLEREIFGPVLHLATFAAEDLPAVIAAINARGYGLTFGLHSRIDARVETVAETIRAGNIYVNRNQIGAVVGSQPFGGEGLSGTGPKAGGPLYLNRFYAPEPVVAVGGWTEAATPILPEARETQLDEIFLPGPTGELNRLTRHQRGPILCLGPGAEAASAQAAAVVALGGQAVQASGAVSPKALETLTPLAGVLWWGAAEMGRAYAQALAVRPGPLVPLITAKPDLAHVAHERHLCVDTTAAGGNAALLAG
  Km: 94 ± 19 µM
  kcat: 2.0 ± 0.1 s⁻¹

— PMC4159212
